The source of these data is PMC9122904, “Insights into the client protein release mechanism of the ATP-independent chaperone Spy” (Nature Communications, 2022).

Holding throughout (assay): BLI; Octet RED96; client biotinylated and loaded on streptavidin sensors; Spy or Spy variant in solution at 0.25, 0.5, 1, 1.5 and 2 μM; 40 mM HEPES, 150 mM NaCl, pH 7.5; Kd calculated as koff/kon
What all share (conditions): both partners purified

For one assay, the target named is T1, Spy_(29-124) R43D (UniProt P77754 52-147, R43D).
T1 construct: source: E. coli BL21 (DE3), purified (Ni-NTA, cation exchange, SEC); not shown: His6, N-terminal, cleaved; SUMO, N-terminal, cleaved
T1 sequence (looked up): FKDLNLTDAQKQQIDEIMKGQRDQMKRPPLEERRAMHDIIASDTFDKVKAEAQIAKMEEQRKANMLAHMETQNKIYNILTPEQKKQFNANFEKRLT

A further assay has as its target T2, Spy_(29-124) R50D (UniProt P77754 52-147, R50D).
T2 construct: source: E. coli BL21 (DE3), purified (Ni-NTA, cation exchange, SEC); not shown: His6, N-terminal, cleaved; SUMO, N-terminal, cleaved
T2 sequence (looked up): T1 sequence (looked up) with D15R, R22D

The target in assay [1] is T3, Spy_(29-124) K54D R55D (UniProt P77754 52-147, K54D | R55D).
T3 construct: source: E. coli BL21 (DE3), purified (Ni-NTA, cation exchange, SEC); not shown: His6, N-terminal, cleaved; SUMO, N-terminal, cleaved
T3 sequence (looked up): T1 sequence (looked up) with D15R, K26D, R27D

The next assay concerns the target T4, Spy_(29-124) R61D R62D (UniProt P77754 52-147, R61D | R62D).
T4 construct: source: E. coli BL21 (DE3), purified (Ni-NTA, cation exchange, SEC); not shown: His6, N-terminal, cleaved; SUMO, N-terminal, cleaved
T4 sequence (looked up): T1 sequence (looked up) with D15R, R33D, R34D

Assay [2] deals with T5, Spy_(29-124) K75D (UniProt P77754 52-147, K75D).
T5 construct: source: E. coli BL21 (DE3), purified (Ni-NTA, cation exchange, SEC); not shown: His6, N-terminal, cleaved; SUMO, N-terminal, cleaved
T5 sequence (looked up): T1 sequence (looked up) with D15R, K47D

Another assay addresses T6, Spy_(29-124) R89D (UniProt P77754 52-147, R89D).
T6 construct: source: E. coli BL21 (DE3), purified (Ni-NTA, cation exchange, SEC); not shown: His6, N-terminal, cleaved; SUMO, N-terminal, cleaved
T6 sequence (looked up): T1 sequence (looked up) with D15R, R61D

In a further assay the target is T7, Spy_(29-124) H96D (UniProt P77754 52-147, H96D).
T7 construct: source: E. coli BL21 (DE3), purified (Ni-NTA, cation exchange, SEC); not shown: His6, N-terminal, cleaved; SUMO, N-terminal, cleaved
T7 sequence (looked up): T1 sequence (looked up) with D15R, H68D

In the next assay the target is T8, Spy_(29-124) K121D R122D (UniProt P77754 52-147, K121D | R122D).
T8 construct: source: E. coli BL21 (DE3), purified (Ni-NTA, cation exchange, SEC); not shown: His6, N-terminal, cleaved; SUMO, N-terminal, cleaved
T8 sequence (looked up): T1 sequence (looked up) with D15R, K93D, R94D

The target in assay [3] is T3, Spy_(29-124) K54D R55D. The source holds these as a separate data set.
The target in assay [4] is T5, Spy_(29-124) K75D. The source holds these as a separate data set.
The target of another assay is T9, Spy D26A (UniProt P77754 24-161, D26A).
T9 construct: source: E. coli BL21 (DE3), purified (Ni-NTA, cation exchange, SEC); not shown: His6, N-terminal, cleaved; SUMO, N-terminal, cleaved
T9 sequence (looked up): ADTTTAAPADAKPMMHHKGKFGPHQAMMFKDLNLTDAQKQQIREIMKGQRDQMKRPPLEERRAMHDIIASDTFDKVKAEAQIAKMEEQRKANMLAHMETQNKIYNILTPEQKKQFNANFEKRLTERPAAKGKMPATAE

Changes are numbered by the printed parent chain. Numbers in names are those of the source.

B1: Im7 H40W L53A I54A (natural protein)
chain: MELKNSISDYTEAEFVQLLKEIEKENVAATDDVLDVLLEWFVKITEHPDGTDAAYYPSDNRDDSPEGIVKEIKEWRAANGKPGFKQG
modifications: biotin (EZ-link NHS-biotin, 1:1 molar ratio of biotin to protein)
notes: Im7 (colicin E7 immunity protein) with H40W L53A I54A; Spy was made with an N-terminal His6-SUMO tag that was cleaved; also called Im7AAW; partially folded client; source: purified by a similar procedure to Spy
In the case of B1, the kon (usually the rate constant with which the complex forms) with Spy_(29-124) R43D is 196000 M⁻¹ s⁻¹; with Spy_(29-124) R50D it was 178000 M⁻¹ s⁻¹; with Spy_(29-124) K54D R55D [1], 126000 M⁻¹ s⁻¹; with Spy_(29-124) R61D R62D, 74000 M⁻¹ s⁻¹; with Spy_(29-124) K75D [2], 156000 M⁻¹ s⁻¹; in the assay with Spy_(29-124) R89D, 48000 M⁻¹ s⁻¹. For the same molecule, the kon is 185000 M⁻¹ s⁻¹ in the assay with Spy_(29-124) H96D, 188000 M⁻¹ s⁻¹ with Spy_(29-124) K121D R122D and 322000 M⁻¹ s⁻¹ in the assay with Spy D26A. Moreover, the off-rate constant (koff) – broadly, a measure of how fast the partners let go of each other – is 0.239 s⁻¹ with Spy_(29-124) K54D R55D [3] and 0.0712 s⁻¹ with Spy_(29-124) K75D [4].
